IntAct's records for PubMed 18571510

B1: Regulatory protein NPR1 (Arabidopsis thaliana (Mouse-ear cress)), P93002 (parent)
chain: MDTTIDGFADSYEISSTSFVATDNTDSSIVYLAAEQVLTGPDVSALQLLSNSFESVFDSPDDFYSDAKLVLSDGREVSFHRCVLSARSSFFKSALAAAKKEKDSNNTAAVKLELKEIAKDYEVGFDSVVTVLAYVYSSRVRPPPKGVSECADENCCHVACRPAVDFMLEVLYLAFIFKIPELITLYQRHLLDVVDKVVIEDTLVILKLANICGKACMKLLDRCKEIIVKSNVDMVSLEKSLPEELVKEIIDRRKELGLEVPKVKKHVSNVHKALDSDDIELVKLLLKEDHTNLDDACALHFAVAYCNVKTATDLLKLDLADVNHRNPRGYTVLHVAAMRKEPQLILSLLEKGASASEATLEGRTALMIAKQATMAVECNNIPEQCKHSLKGRLCVEILEQEDKREQIPRDVPPSFAVAADELKMTLLDLENRVALAQRLFPTEAQAAMEIAEMKGTCEFIVTSLEPDRLTGTKRTSPGVKIAPFRILEEHQSRLKALSKTVELGKRFFPRCSAVLDQIMNCEDLTQLACGEDDTAEKRLQKKQRYMEIQETLKKAFSEDNLELGNSSLTDSTSSTSKSTGGKRSNRKLSHRRR
partner: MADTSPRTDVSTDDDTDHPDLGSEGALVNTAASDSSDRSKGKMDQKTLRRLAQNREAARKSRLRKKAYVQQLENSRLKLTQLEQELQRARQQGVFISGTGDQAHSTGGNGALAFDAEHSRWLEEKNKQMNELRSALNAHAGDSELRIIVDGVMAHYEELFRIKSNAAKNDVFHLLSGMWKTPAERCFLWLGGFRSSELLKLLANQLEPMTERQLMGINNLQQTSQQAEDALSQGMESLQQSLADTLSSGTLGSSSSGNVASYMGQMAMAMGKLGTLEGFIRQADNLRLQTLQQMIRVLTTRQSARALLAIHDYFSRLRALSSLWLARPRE

Variants of: B1
Settings: with tga2_arath TGA2, P43273

effect of a mutation on the interaction | Variant
disrupting interaction | C150Y
